The values below come from patent US20020102250A1, “Recombinant S. aureus peptide deformylase” (priority 2000, published 2002).

Data set [1] is described as follows: Stability of Fe forms of pdf at serial dilutions with or without catalase; pdf assay coupled to Vibrio aminopeptidase. It is filed as biochemical. The method, then:
A description of the optimized assay conditions is as follows. The final assay solution contained 50 mM Hepes, 10 mM NaCl, pH 7.0, 0.1% K-casein (Sigma Chemical Co.; St. Louis, Mo.), 100 micromolar formyl-Met-Leu-p-nitroanilide (prepared by standard methods and commercially available from Bachem Bioscience, Inc.; Philadelphia, Pa.; Catalog No. L2030), 5 nanograms of pdf protein (iron form) or 100 nanograms of pdf protein (zinc form), and V. proteolytica aminopeptidase.
(A) 25 microliters of inhibitor in 15% dimethyl sulfoxide (DMSO) (maximum) was pipetted into 96 well microtiter plates (Immulon II from Dynex Technologies; Chantilly, Va.).
(B) 100 microliters of bulk assay solution was pipetted next. This solution is described as follows, and required that the reagents be mixed in the order shown below (enough for 100 assays):
(C) The plate was preincubated at room temperature for 10 minutes.
(D) Finally, 25 microliters of 0.6 mM f-Met-Leu-p-nitroanilide (prepared by adding 120 microliters of 20 mM stock in 100% MeOH to 3,880 microliters of assay buffer) was added.
(E) Each plate was examined in a SpectraMax 250 reader (Molecular Devices Corp.; Sunnyvale, Calif.) using an absorbance of 405 nm. Time points were taken every 20 seconds over a 30 minute time course at 25° C. Since oxidation might be an issue, the plate was mixed to begin the reaction, but not prior to subsequent time points. Addition of anti-oxidant reagents is not required, and preferably reducing agents are not added. Each line was checked for linearity over time and the resulting R^2 value was expected to be greater than about 0.98 for assay validity.
Expression of the iron form of S. aureus or E. coli pdf (known to be unstable) in E. coli was monitored after the addition of 1.6 mM FeCl3 in the media (Luria broth). Incubation was allowed to proceed for 1 hour prior to the addition of IPTG (0.4 mM). Induction continued for 3 hours at 37° C. Cells were isolated and extracted in the presence of catalase (10 micrograms/ml). The purpose of the catalase was to act as an oxygen scavenger to prevent the inactivation of the Fe form of the E. coil pdf. The extracts were subjected to Ni-NTA chromatography for the purification of the C-terminally His tagged versions of both the E. coli and S. aureus pdf proteins. The purified proteins (concentrated to at least 1 mg/ml by ultrafiltration using a membrane available from Amicon; Bedford, Mass.) were stored in the presence of 10 micrograms/ml (minimum concentration) catalase. To examine the stability of the Fe forms of the pdf proteins, dilutions of the proteins were made in the presence or absence of catalase, followed by assays of the enzymes (serially diluted) in the presence or absence of catalase (at 100 micrograms/ml). Assays were run using formyl-Met-Leu-p-nitroanilide as substrate, coupled to the Vibrio aminopeptidase.
The results, which depict linear reactions catalyzed by pdf, are shown in FIG. 2 for S. aureus pdf and FIG. 3 for E. coli pdf. […] The rates shown are in mOD/minute, and each line represents a different concentration of the pdf in nanogram amounts as listed in the legend. […] This is consistent with a significant loss of enzyme activity in the absence of catalase only for the E. coli enzyme. See Rajagopalan et al., J. Amer. Chem. Soc., 119:12418-19 (1997).

The conditions of data set [2]: Fe complex, as reported in prior work; cited from earlier work.

B1: E. coli pdf: Iron form of E. coli peptide deformylase, C-terminally His tagged, known to be unstable, used for comparison (protein, UniProt P0A6K3 2-169, looked up)
Peptide deformylase: SVLQVLHIPDERLRKVAKPVEEVNAEIQRIVDDMFETMYAEEGIGLAATQVDIHQRIIVIDVSENRDERLVLINPELLEKSGETGIEEGCLSIPEQRALVPRAEKVKIRALDRDGKPFELEADGLLAICIQHEMDHLVGKLFMDYLSPLKQQRIRQKVEKLDRLKARA
modifications: C-terminal His tag; iron form
Take B1: the Vmax in data set [1] (125 ng pdf, with added catalase) came out at 8.4 mOD/minute; in data set [1] (125 ng pdf, without added catalase) it was 2.4 mOD/minute; in data set [1] (250 ng pdf, with added catalase), 19.2 mOD/minute; in data set [1] (250 ng pdf, without added catalase), 3.7 mOD/minute; in data set [1] (500 ng pdf, with added catalase), 45.1 mOD/minute; in data set [1] (500 ng pdf, without added catalase) it was 6.5 mOD/minute. Further, the Vmax in data set [1] (1000 ng pdf, with added catalase) stood at 133 mOD/minute; in data set [1] (1000 ng pdf, without added catalase), 18.9 mOD/minute. The “pdf activity as a function of dilution, with versus without catalase in the assay solution” value in data set [1] (catalase at 100 micrograms/ml or absent) is “rapidly loses activity”.

B2: Fe complex of pdf: Fe complex of peptide deformylase of the prior art (background, E. coli enzyme context) (protein, UniProt P0A6K3 2-169, looked up)
Peptide deformylase: SVLQVLHIPDERLRKVAKPVEEVNAEIQRIVDDMFETMYAEEGIGLAATQVDIHQRIIVIDVSENRDERLVLINPELLEKSGETGIEEGCLSIPEQRALVPRAEKVKIRALDRDGKPFELEADGLLAICIQHEMDHLVGKLFMDYLSPLKQQRIRQKVEKLDRLKARA
modifications: iron form
Turning to B2, in data set [2], the half-life entry was “around 30 seconds”.
